Measurements as given in paper doi:10.1101/847608 (bioRxiv, 2019).

Target: the molecule itself
Experiment: turbidity

## SGYDFEREGYS [SGYDFEREGYS peptide (wild type peptide, NP 287-297)]
  binding result: binds
